These results are taken from PMC8479045, “Assembly defects of human tRNA splicing endonuclease contribute to impaired pre-tRNA processing in pontocerebellar hypoplasia” (Nature Communications, 2021).

“And” between values parts separate entries of the source, which are not always exact repeats. Equal entries are not always repeated.

Series [1] relates to TSEN2 H377A (inactive);TSEN34 H255A (inactive);TSEN15;TSEN54 (Homo sapiens;Homo sapiens;Homo sapiens;Homo sapiens). The series is described as follows: competition (fluorescence anisotropy). To be noted: competitor of 3'-Cy5 pre-tRNA-Phe; FA: 50 mM HEPES-NaOH pH 7.4, 100 mM NaCl, 22 °C, 70 nM Cy5-RNA; EMSA: same buffer + 1 mM DTT, 4% glycerol, on ice, 10 nM RNA; pull-down: 50 mM HEPES-NaOH pH …. A general note: In EMSA bound probe runs differently from free probe, usually more slowly.

Series [2] shares this test system. Description: fluorescence anisotropy. To be noted: FA: 50 mM HEPES-NaOH pH 7.4, 100 mM NaCl, 22 °C, 70 nM Cy5-RNA; EMSA: same buffer + 1 mM DTT, 4% glycerol, on ice, 10 nM RNA; pull-down: 50 mM HEPES-NaOH pH …. In general terms: Fluorescence polarisation rises when a labelled molecule tumbles more slowly, as on binding a larger partner.
Series [3] deals with the molecule itself. Description: SEC-MALS; 330 µg TSEN15–34 complex at 1.65 mg/ml, Superdex 200 Increase, 25 mM HEPES-NaOH pH 7.5, 250 mM NaCl; heterodimer to dimer of heterodimers at high protein concentration.
The target in series [4] is T1, heterotetrameric tRNA splicing endonuclease TSEN (TSEN2–15–34–54) (human, UniProt Q8NCE0 1-465; Q8WW01 1-171; Q9BSV6 1-310; Q7Z6J9 1-526, high degree of phosphorylation (sites not given)).
T1 construct: human TSEN2, open reading frame, UniProtKB Q8NCE0; human TSEN15, open reading frame, UniProtKB Q8WW01; human TSEN34, open reading frame, UniProtKB Q9BSV6; human TSEN54, open reading frame, UniProtKB Q7Z6J9; His tags were removed with TEV protease; also called tetrameric TSEN; TSEN2–15–34–54 heterotetramer; source: Sf21 insect cells (baculovirus), co-expressed (with CLP1), purified (Ni-NTA, …)
T1 sequence (looked up) 1: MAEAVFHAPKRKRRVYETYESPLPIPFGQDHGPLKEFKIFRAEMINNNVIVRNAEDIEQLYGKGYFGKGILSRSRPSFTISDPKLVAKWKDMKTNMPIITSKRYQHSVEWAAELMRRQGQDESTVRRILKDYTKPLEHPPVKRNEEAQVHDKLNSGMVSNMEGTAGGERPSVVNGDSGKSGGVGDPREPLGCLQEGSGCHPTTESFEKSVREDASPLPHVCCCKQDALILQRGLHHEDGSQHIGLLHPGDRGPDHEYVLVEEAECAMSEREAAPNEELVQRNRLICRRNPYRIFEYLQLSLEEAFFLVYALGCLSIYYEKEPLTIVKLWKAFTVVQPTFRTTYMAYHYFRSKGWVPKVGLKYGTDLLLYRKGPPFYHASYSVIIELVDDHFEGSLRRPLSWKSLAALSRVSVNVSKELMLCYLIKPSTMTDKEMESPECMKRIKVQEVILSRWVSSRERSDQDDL
T1 sequence (looked up) 2: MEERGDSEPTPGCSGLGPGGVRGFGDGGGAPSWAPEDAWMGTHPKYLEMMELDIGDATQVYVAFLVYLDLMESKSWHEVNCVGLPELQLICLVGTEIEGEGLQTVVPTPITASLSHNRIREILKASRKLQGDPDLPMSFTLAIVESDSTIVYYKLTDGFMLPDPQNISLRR
T1 sequence (looked up) 3: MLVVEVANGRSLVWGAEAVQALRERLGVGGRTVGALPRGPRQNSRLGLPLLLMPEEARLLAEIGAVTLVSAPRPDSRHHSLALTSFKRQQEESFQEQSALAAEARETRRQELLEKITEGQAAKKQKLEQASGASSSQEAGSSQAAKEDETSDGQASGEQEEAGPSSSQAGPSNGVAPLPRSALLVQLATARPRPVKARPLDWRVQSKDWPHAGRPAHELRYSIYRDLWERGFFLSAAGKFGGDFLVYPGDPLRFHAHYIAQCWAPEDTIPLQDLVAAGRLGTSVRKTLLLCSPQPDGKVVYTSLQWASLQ
T1 sequence (looked up) 4: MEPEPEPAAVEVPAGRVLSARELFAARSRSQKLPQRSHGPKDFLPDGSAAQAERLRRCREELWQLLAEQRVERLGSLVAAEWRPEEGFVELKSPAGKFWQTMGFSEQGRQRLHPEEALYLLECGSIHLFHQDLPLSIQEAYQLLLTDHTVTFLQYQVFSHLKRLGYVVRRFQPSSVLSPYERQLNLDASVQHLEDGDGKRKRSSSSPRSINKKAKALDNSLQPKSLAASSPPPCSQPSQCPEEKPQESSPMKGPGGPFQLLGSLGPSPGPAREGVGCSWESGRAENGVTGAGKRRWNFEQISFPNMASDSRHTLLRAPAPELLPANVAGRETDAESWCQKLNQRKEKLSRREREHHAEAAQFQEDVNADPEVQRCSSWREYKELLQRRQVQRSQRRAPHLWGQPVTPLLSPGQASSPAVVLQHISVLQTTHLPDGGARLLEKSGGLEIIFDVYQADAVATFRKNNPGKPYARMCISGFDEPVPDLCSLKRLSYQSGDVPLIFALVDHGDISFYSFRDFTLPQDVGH
Description: native MS; purified wt TSEN (1.09 mg/ml) and wt TSEN/CLP1 (1.88 mg/ml) from insect cells, exchanged into 200 mM ammonium acetate pH 7.5; Q-ToF modified for high-mass complexes. The conditions noted are these: both partners purified.

Consider S.c. pre-tRNA-Phe(GAA), unlabeled, for which the Ki in series [1] came out at 197 nM.
With S.c. mature tRNA-Phe(GAA), 3'-Cy5, the Kd in series [2] was 149 nM.
On the same count and under the same terms, in the case of S.c. pre-tRNA-Phe(GAA), 3'-Cy5 it was 173 nM.

B1: truncated TSEN15–34 complex (TSEN15 residues 23–170 and TSEN34 residues 208–310) (complex, human)
chain 1: GFGDGGGAPSWAPEDAWMGTHPKYLEMMELDIGDATQVYVAFLVYLDLMESKSWHEVNCVGLPELQLICLVGTEIEGEGLQTVVPTPITASLSHNRIREILKASRKLQGDPDLPMSFTLAIVESDSTIVYYKLTDGFMLPDPQNISLR
chain 2: DWPHAGRPAHELRYSIYRDLWERGFFLSAAGKFGGDFLVYPGDPLRFHAHYIAQCWAPEDTIPLQDLVAAGRLGTSVRKTLLLCSPQPDGKVVYTSLQWASLQ
notes: human TSEN15, UniProtKB Q8WW01, residues 23–170; The SEC-MALS methods speak only of 'TSEN15–34 complex'; also called minimal TSEN15–34 complex; source: Sf21 insect cells (baculovirus), co-expressed, purified (Ni-NTA, TEV, SEC); not shown: His10, N-terminal, cleaved
As to B1, the “stoichiometry N” value in series [3] amounted to 2.

B2: RNA kinase CLP1 (enzyme, human, UniProt Q92989 1-425, looked up)
chain: MGEEANDDKKPTTKFELERETELRFEVEASQSVQLELLTGMAEIFGTELTRNKKFTFDAGAKVAVFTWHGCSVQLSGRTEVAYVSKDTPMLLYLNTHTALEQMRRQAEKEEERGPRVMVVGPTDVGKSTVCRLLLNYAVRLGRRPTYVELDVGQGSVSIPGTMGALYIERPADVEEGFSIQAPLVYHFGSTTPGTNIKLYNKITSRLADVFNQRCEVNRRASVSGCVINTCGWVKGSGYQALVHAASAFEVDVVVVLDQERLYNELKRDLPHFVRTVLLPKSGGVVERSKDFRRECRDERIREYFYGFRGCFYPHAFNVKFSDVKIYKVGAPTIPDSCLPLGMSQEDNQLKLVPVTPGRDMVHHLLSVSTAEGTEENLSETSVAGFIVVTSVDLEHQVFTVLSPAPRPLPKNFLLIMDIRFMDLK
notes: human CLP1, open reading frame, UniProtKB Q92989; source: Sf21 insect cells (baculovirus), co-expressed with the four TSEN subunits, purified (Ni-NTA, heparin, TEV, SEC); not shown: His6, N-terminal, cleaved
Regarding B2, the “stoichiometry N” value in series [4] is 1 and 2.

What is called Ki is the equilibrium dissociation constant of an inhibitor or competing ligand from its target. The Kd is the free concentration of one partner at which half of the binding sites on the other are occupied at equilibrium, for simple one-to-one binding. What is called stoichiometry N is a count of units in the complex or per binding partner.
